Results reported in article PMC7952905.

Biological target: human ACE2 extracellular domain (19-615) (human) (UniProt Q9BYF1)
Experiment: SPR

RaTG13 RBD (333-526) (from UniProt A0ABF7PLN6 333-526) (domain or fragment; other documents disagree on this pair)
Kd: 500 nM
